According to publication PMC2064205 (The Journal of Cell Biology, 2007):

What was measured:
HA3-San = biological target: T1, HA3-San (human, UniProt Q9GZZ1 1-169); test: co-IP
T1 sequence: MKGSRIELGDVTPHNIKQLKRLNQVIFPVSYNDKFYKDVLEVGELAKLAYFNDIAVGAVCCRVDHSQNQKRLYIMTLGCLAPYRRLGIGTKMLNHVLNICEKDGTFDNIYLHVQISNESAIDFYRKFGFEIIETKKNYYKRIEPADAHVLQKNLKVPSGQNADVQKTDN

HA3-Ard1 = biological target: T2, HA3-Ard1 (human, UniProt P41227 1-235); test: co-IP
T2 sequence: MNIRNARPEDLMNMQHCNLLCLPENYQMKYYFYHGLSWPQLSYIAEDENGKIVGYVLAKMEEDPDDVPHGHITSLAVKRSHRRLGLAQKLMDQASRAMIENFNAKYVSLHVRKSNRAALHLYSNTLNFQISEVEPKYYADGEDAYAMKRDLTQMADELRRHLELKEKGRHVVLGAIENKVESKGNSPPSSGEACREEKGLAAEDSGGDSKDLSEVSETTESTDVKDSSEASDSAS

Row | Binder | percent of input pulled down (HA3-San) | percent of input pulled down (HA3-Ard1)
1 | Ard1 (endogenous) (natural protein) MNIRNARPEDLMNMQHCNLLCLPENYQMKYYFYHGLSWPQLSYIAEDENGKIVGYVLAKMEEDPDDVPHGHITSLAVKRSHRRLGLAQKLMDQASRAMIENFNAKYVSLHVRKSNRAALHLYSNTLNFQISEVEPKYYADGEDAYAMKRDLTQMADELRRHLELKEKGRHVVLGAIENKVESKGNSPPSSGEACREEKGLAAEDSGGDSKDLSEVSETTESTDVKDSSEASDSAS | > 10 % of input | 
2 | NatH (endogenous) (natural protein) MPAVSLPPKENALFKRILRCYEHKQYRNGLKFCKQILSNPKFAEHGETLAMKGLTLNCLGKKEEAYELVRRGLRNDLKSHVCWHVYGLLQRSDKKYDEAIKCYRNALKWDKDNLQILRDLSLLQIQMRDLEGYRETRYQLLQLRPAQRASWIGYAIAYHLLEDYEMAAKILEEFRKTQQTSPDKVDYEYSELLLYQNQVLREAGLYREALEHLCTYEKQICDKLAVEETKGELLLQLCRLEDAADVYRGLQERNPENWAYYKGLEKALKPANMLERLKIYEEAWTKYPRGLVPRRLPLNFLSGEKFKECLDKFLRMNFSKGCPPVFNTLRSLYKDKEKVAIIEELVVGYETSLKSCRLFNPNDDGKEEPPTTLLWVQYYLAQHYDKIGQPSIALEYINTAIESTPTLIELFLVKAKIYKHAGNIKEAARWMDEAQALDTADRFINSKCAKYMLKANLIKEAEEMCSKFTREGTSAVENLNEMQCMWFQTECAQAYKAMNKFGEALKKCHEIERHFIEITDDQFDFHTYCMRKITLRSYVDLLKLEDVLRQHPFYFKAARIAIEIYLKLHDNPLTDENKEHEADTANMSDKELKKLRNKQRRAQKKAQIEEEKKNAEKEKQQRNQKKKKDDDDEEIGGPKEELIPEKLAKVETPLEEAIKFLTPLKNLVKNKIETHLFAFEIYFRKEKFLLMLQSVKRAFAIDSSHPWLHECMIRLFNTAVCESKDLSDTVRTVLKQEMNRLFGATNPKNFNETFLKRNSDSLPHRLSAAKMVYYLDPSSQKRAIELATTLDESLTNRNLQTCMEVLEALYDGSLGDCKEAAEIYRANCHKLFPYALAFMPPGYEEDMKITVNGDSSAEAEELANEI | > 10 % of input | 
3 | San (endogenous) (natural protein) MKGSRIELGDVTPHNIKQLKRLNQVIFPVSYNDKFYKDVLEVGELAKLAYFNDIAVGAVCCRVDHSQNQKRLYIMTLGCLAPYRRLGIGTKMLNHVLNICEKDGTFDNIYLHVQISNESAIDFYRKFGFEIIETKKNYYKRIEPADAHVLQKNLKVPSGQNADVQKTDN |  | < 10 % of input
